This data set is described as follows: soluble on expression in E. coli; label from the status in PepcDB or PDB records.
For the sequence “MDEFPPIFIISLKDSPRKNIIAERLNALGLSFNFFDAIYGKELSKKQLSEINYDFYIQKFNARKRLTLGEIGCAISHIKLYEYIVKNNINEAIILEDDAIVSIYFKDIICDALKKISCKYEILFLDHGKAKIFPFTRSLVERYRLAKYISPSKKSKRIIIRTTAYIITLNGARKLLNYAYPIRMPSDYLTGTLQLTGINAYGIEPPCVFGGPISEIDQIEDRYCLEHHHHHH”, the “soluble on expression in E. coli” value is on record as “not soluble”. On to “MDEGIRASGGIRACQTGKQKQGRKRPVTGKKRIVVGMSGGVDSSVTAWLLKQQGHEVIGVFMQNWEDDNDDEYCSIKQDALDAMSVADIVGIDMEIVNFAKEYKDRVFSYFLKEYSAGRTPNPDVLCNAEIKFKAFLDYAMELGADCIATGHYARKLEQDGTHYLMKAVDHTKDQSYFLYRLQQHQLAKAIFPLGDIRKTEVRRLAEEAGLPTAAKKDSTGICFIGERPFREFLQRYLPTSPGQMVTPDGKVVGEHIGLMYYTLGQRKGLTIGGSRDGNGEPWFVAGKDIPGNKLIVVQGHDHPLLLKPTLSMADLSWTLPDAPAPGEYSAKNRYRMADAACTLSPIVDGQASLTFQEKQWAVTPGQSAVLYHGDICLGGGIIQLEHHHHHH”, for which the “soluble on expression in E. coli” value is “not soluble”. The value for “MDFELCPKFEKTFSILGKKWNGLIIDVLLEDGPQRFKNLARRIPKCSDRVLVVRLKELEENGIVSRVTHCDSALIEYRLTTKGQDLRQVMDTVHNWSDKWFSPAES” was “not soluble”; that for “MDFPTISRSPSGPPAMDLEGPRDILVPSEDLTPDSQWDPMPGGPGSLSRMELDESSLQELVQQFEALPGDLVGPSPGGAPCPLHIATGHGLASQEIADAHGLLSAEAGRDDLLGLLHCEECPPSQTGPEEPLEPAPRLLQPPEDPDEDSDSPEWVEGASAEQEGSRSSSSSPEPWLETVPLVTPEEPPAGAQSPETLASYPAPQEVPGPCDHEDLLDGVIFGARYLGSTQLVSERNPPTSTRMAQAREAMDRVKAPDGETQPMTEVDLFVSTKRIKVLTADSQEAMMDHALHTISYTADIGCVLVLMARRRLARRPAPQDHGRRLYKMLCHVFYAEDAQLIAQAIGQAFAAAYSQFLRESGIDPSQVGVHPSPGACHLHNGDLDHFSNSDNCREVHLEKRRGEGLGVALVESGWGSLLPTAVIANLLHGGPAERSGALSIGDRLTAINGTSLVGLPLAACQAAVRETKSQTSVTLSIVHCPPVTTAIIHRPHAREQLGFCVEDGIICSLLRGGIAERGGIRVGHRIIEINGQSVVATPHARIIELLTEAYGEVHIKTMPAATYRLLTGQEQPVYL” was “soluble”. With “MDFVTGAVAHRRKFGGGRGQSIAKAVGLKQGVTPKVVDGTAGLGRDAFVLASLGCTVTMVERHPVVAALLEDGLRRAYQDAEIGDWMRERMQLFHGSSLEALAKLEQGVDVVYLDPMYPHRDKSALVKKEMRVFQTLVGADLDADGLLAPAMALASKRVVVKRPDYAEDLAGVKPSMVIETKKNRFDVYVKSAMKLEHHHHHH”, the “soluble on expression in E. coli” value was “not soluble”.

“MDFYYLPGSAPCRAVQMTAAAVGVELNLKLTNLMAGEHMKPEFLKLNPQHCIPTLVDEDGFVLWESRAIQIYLVEKYGAHDADLAERLYPSDPRRRAVVHQRLFFDVAVLYQRFAEYYEPQIFGQKVPVGDPGRLRSMEQALEFLNTFLEGEQYVAGGDDPTIADLSILATIATYEVAGYDLRRYENVQRWYERTSAIVPGADKNVEGAKVFGRYFTQK”: the “soluble on expression in E. coli” value is on record as “soluble”.

With “MDGFQLGNNSPKEITVFCDESRPEALRAASITQRYLCIGSIWVDRERVREVNEEIRALQIKYSKMGEVKWGKVSPSSIQFNCELIDLFFDERFNLQFRAIVVDNQKVDLSYHNNDQELGFYKFYYQMLKHKLINGCSYRIYCDLKTNKMRGRASTLEHYLQTYCLGSVEMVQLLPSNDLPLMQLTDLLLGAVSTKFNFRIPKSPAKNEVISTIERHIGHQIQPTRKNEQKFNVFCIEPGMGR”, the “soluble on expression in E. coli” value was “not soluble”. Then “MDGKLLWSFNSGDAVRSVAISRDGDYVATGSANNYVYLLDSEGKTLWGKKTGSLINSVTMTPNAYYVAAGGSNYNVYLFDRKGEFSWMHNPGYWVSSVSLSSNGSHLAAGSFDDRIYLFNLTGAKLWDYQVKDDVYAVEIAPDSSFIAAGSWDDSIYALNMSGKELEHHHHHH”, with “not soluble”; and “MDGKRVWLSDDELTRFIEQAETPHQRLAFLLAGRVGLRRSEIIEVCPQDLVDGPTGDHIRVWESYAKRDKYREPPVPQEVVTIAETLAYQQDDDEPLLDVAGSTVYRWVRRAADELEEETGDRGWQYLDVHDLRRTWGTYLLEQGVIPSVVMSFGGWEDWDTFRKHYLGLEHHHHHH”, with “not soluble”; and “MDGYTGSHVVRCALRLAPLVFVRPGELRKAEWKDIDLDGGEWRYTVTKTNTPHIVPLSTQAVEILKELQALTGRSRFVFPGARTNGRPMSDNAILAALRRMGIDKEEMSGHGFRAMARTILDEVLGVRPDFIEHQLAHSVRDPLEHHHHHH”, with “not soluble”. Then “MDHDTEVIVKDFNSILEELTFNSRPIITTLTKLAEENISCAQYFVDAIESRIEKCMPKQKLYAFYALDSICKNVGSPYTIYFSRNLFNLYKRTYLLVDNTTRTKLINMFKLWLNPNDTGLPLFEGSALEKIEQFLIKASAAALE”, with “soluble”; and “MDIILGIRVQDSVILASSKAVTRGISVLKDSDDKTRQLSPHTLMSFAGEAGDTVQFAEYIQANIQLYSIREDYELSPQAVSSFVRQELAKSIRSRRPYQVNVLIGGYDKKKNKPELYQIDYLGTKVELPYGAHGYSGFYTFSLLDHHYRPDMTTEEGLDLLKLCVQELEKRMPMDFKGVIVKIVDKDGIRQVDDFQAQ”, with “soluble”. In the case of “MDIKAMGYVVIPRLPFKEFRDEKIYDHLFKRAEYRPNQELELGQTIIKVVELAKDFNWSAAQIKYSLDRMEKQGYIKLHRLPQKRGLIVTILHYADYIQLGNYMKNKALEPAQIEHQEVDDKMKNAFELYENKVARSVGPMEAQRIGYMVDDYGEEKVMEAIKTAFQLKGKAASLSYVQAILSNPFTQKRKEKQYGYKQSSQYRHRISNDHAGTSGKVSPLFGNKTGRIRRKG”, the “soluble on expression in E. coli” value was “not soluble”. Then “MDIKELHVKTVKRGENVTMECSMSKVTNKNNLAWYRQSFGKVPQYFVRYYSSNSGYKFAEGFKDSRFSMTVNDQKFDLNIIGAREDDGGEYFCGEVEGIIIKFTSGTRLQFEGSNEGSKSSDGEGSSCPDQMHVLVW”, with “soluble”.

Regarding “MDIKKFVARRKALQISQIKLSAGICTQATLSKFERRGRVPSLAILEQLCARLGLTVDELNEDQASSVTQMRQELDHIERQLMMEDYQVVLQALNRIAVSEIAAVPLRMQYYYLSGLLKSLINGAVSDVCFDFDQILDDLDQTHETVFTPLAYVGLGVMYSRLSELAKAQFYFEKVHQAVKQALVNGDDQDYLRLLTMIFYTAEYEATREDFTTSNGLINDGVSLCSEQHVTYYLPRLKYLATANAIQQCQPDEQIQQLLSETVAFARINHNQVVEVKAAALRRRYLQARKHA”, the “soluble on expression in E. coli” value is “not soluble”. The value for “MDILLTLLDDKTSVASDWRILGIISLRGSTPRLAILLQVVQWAAFYCWRNYMSPYKDKRWRSKRDTALRRDKYECRNCKRFGITTTATVVHHVWFLRDYPKWWLCLWNLISLCEKCHNKMHNRDSDIPTELGEYWQDKIKPPTSATKKYFLEHHHHHH” was “not soluble”; that for “MDISIEFGLYPTESDLTELQQYFPDTNLKKLYEVEAYHKKLETILDSEFSTERESLIAEIDELESQLTTLNQELQELGNIPNLSSEYLENYSKLTATINALKEQNEAYLKESGLSKEKSETDADLKRSTEDILLDLEVKINSKMREVNNILYPDIRKAPQINLNAHNSYSFYTPDDDGTGTKFKGMIVFDLVMLYLTNLPALAHDSLLLSNVSYQATEALLKLYDQSRSLNKQVFLVFDKASSYSPDANQLLSENTVLRLSSNGNELYGISWNKGENSDEI” was “not soluble”. The value for “MDKADLYEKNQSRKDILNYYREEDKDFEQYLNFRENRKMLQQAFESGTLIRKQNYRARIHERMVEQPVTEKKELLRSR” was “not soluble”.

In the case of “MDKIRYGIMSTAQIVPRFVAGLRESAQAEVRGIASRRLENAQKMAKELAIPVAYGSYEELCKDETIDIIYIPTYNQGHYSAAKLALSQGKPVLLEKPFTLNAAEAEELFAIAQEQGVFLMEAQKSVFLPITQKVKATIQEGGLGEILWVQSVTAYPNVDHIPWFYSREAGGGALHGSGSYPLQYLQYVLGKEIQEVTGTATYQQGATDSQCNLALKFAEGTLGNIFINVGLKIPSEMTICGTKGQIVIPNFWKTDCAYYTDAQGNTVKWSEQFTSEFTYEINHVNQCLQDKKLTSPVMTKELTIATVKIVESFYQEWFDNE”, the “soluble on expression in E. coli” value was “not soluble”.

Regarding “MDKLKIIMEKGTERLKRGFAKMVKGGVIMDVTNAEQARIAEEAGAVAVMALHKVPADIRKAGGVARMAPVEKIQEIMDAVTIPVMAKCRIGHEAEARILEALGVDMIDESEVLTPADPFFHIYKKKFTAPFVCGARNLGEAVRRIWEGAAMIRTKGEAGTGNIIEAVRHVRLVNENIRLIQRMTDEEIYGVAEKFAEPYLRLAFSVKEISGLPKRVLENEPIYEGFTYREIVEDIYKILLEIKKLGRLPVVNFAAGGVATPADAALMMAMGMDGVFVGSGIFKSSNPPKMARAIVEAVNHWDEPDVLAEISREIGEPMRGQAIEELQVRMEERGILEHHHHHH”, the “soluble on expression in E. coli” value is reported as “not soluble”. Turning to “MDKNWMIAMHNPATIYNPNAQTEFVEFPIYTVLIDHPEGKILFDTACNPNSMGPQGRWAEVTQQMFPWNASEECYLHNRLEQLKVRPEDIRYVVASHLHLDHAGCLEMFTNATIIVHEDEFNGALQCYARNQKEGAYIWADIDAWIKNNLQWRTVKRHEDNILLAEGVRVLNFGSGHAWGMLGLHVELPETGKIILASDAIYTAENYGPPVKPPGIIYDSLGYVNTVERIRRIAQETNSKIWFGHDAEQFKQFRKSTEGYYE”, the “soluble on expression in E. coli” value is reported as “not soluble”. The value for “MDKVLNREESLQLMDLLGLERSAWGNIPLMRKAYLKKCKEFHPDKGGDEEKMKKMNTLYKKMEDGVKYAHQPDFGGFWDATEVFASSLNPGVDAIYCKQWPECVKKMSTNCICLLCLLRMKHENRKLYRKDPLVWVDCYCFDCFRMWFGLDLCEGTLLLWCDIIGQTTYRDLKL” was “soluble”. Regarding “MDLEPIFLTPVFQERIWGGTKLAERFGYDIPSSQTGECWAVSAHPHGQTVVARGPFAGMTLGQLWEERRDLFGHFPSDRFPLLTKILDANADLSVQVHPDDEYAKTHEGGELGKTECWYIIDCKPGAKLIYGHYAETKGELRAMMEAGEWDRLLRKVPIRPGDFFYVPSGTIHALCEGTLVLETQQSSDTTYRVYDYDRVDSQGRKRELHLEKAIDVTTVPHRDIDVHPHVAEFPGATVTTFVEGDYFGVQKWDVHDAFASEQTKPFLIVSILKGEGELVHHERIYAIRQGDHFILPHQFGRFTIRGMLEAIASWPRAGK”, the “soluble on expression in E. coli” value is “not soluble”. The value for “MDMKRRIHLELRNRTPAAVRELVLDNCKSNDGKIEGLTAEFVNLEFLSLINVGLISVSNLPKLPKLKKLELSENRIFGGLDMLAEKLPNLTHLNLSGNKLKDISTLEPLKKLECLKSLDLFNCEVTNLNDYRESVFKLLPQLTYLDGYDREDQEAPDSDAEVDGVDEEEEDEEGEDEEDEDDEDGEEEEFDEEDDEDEDVEGDEDDDEVSEEEEEFGLDEEDEDEDEDEEEEEGGKGEKRKRETDDEGEDD” was “soluble”.

The values are drawn from the DeepSol protein solubility set.
